For 2 substances, fold enrichment in the surface condensates and fold enrichment in the dense ZO1 phase results are on record in article doi:10.1101/2023.06.24.546380.

Test [1] addresses Zonula occludens scaffold protein ZO1 (UniProt Q07157). Nature of the test: partitioning of actin into ZO1 surface condensates on supported lipid bilayers.
Test [2] has as its target intracellular domain of the tight junction receptor JAM-A (UniProt Q9Y624).
Sequence of UniProt Q9Y624 (Q9Y624 28-299): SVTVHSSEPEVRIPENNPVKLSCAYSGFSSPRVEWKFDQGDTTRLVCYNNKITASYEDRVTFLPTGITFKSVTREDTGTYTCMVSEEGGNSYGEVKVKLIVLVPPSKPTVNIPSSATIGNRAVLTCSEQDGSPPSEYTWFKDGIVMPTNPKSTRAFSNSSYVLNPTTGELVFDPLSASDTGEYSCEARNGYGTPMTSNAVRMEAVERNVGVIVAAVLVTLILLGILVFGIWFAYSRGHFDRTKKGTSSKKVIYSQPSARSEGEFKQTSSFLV

Sequence of UniProt Q07157 (Q07157 whole entry, the tested form may be a part): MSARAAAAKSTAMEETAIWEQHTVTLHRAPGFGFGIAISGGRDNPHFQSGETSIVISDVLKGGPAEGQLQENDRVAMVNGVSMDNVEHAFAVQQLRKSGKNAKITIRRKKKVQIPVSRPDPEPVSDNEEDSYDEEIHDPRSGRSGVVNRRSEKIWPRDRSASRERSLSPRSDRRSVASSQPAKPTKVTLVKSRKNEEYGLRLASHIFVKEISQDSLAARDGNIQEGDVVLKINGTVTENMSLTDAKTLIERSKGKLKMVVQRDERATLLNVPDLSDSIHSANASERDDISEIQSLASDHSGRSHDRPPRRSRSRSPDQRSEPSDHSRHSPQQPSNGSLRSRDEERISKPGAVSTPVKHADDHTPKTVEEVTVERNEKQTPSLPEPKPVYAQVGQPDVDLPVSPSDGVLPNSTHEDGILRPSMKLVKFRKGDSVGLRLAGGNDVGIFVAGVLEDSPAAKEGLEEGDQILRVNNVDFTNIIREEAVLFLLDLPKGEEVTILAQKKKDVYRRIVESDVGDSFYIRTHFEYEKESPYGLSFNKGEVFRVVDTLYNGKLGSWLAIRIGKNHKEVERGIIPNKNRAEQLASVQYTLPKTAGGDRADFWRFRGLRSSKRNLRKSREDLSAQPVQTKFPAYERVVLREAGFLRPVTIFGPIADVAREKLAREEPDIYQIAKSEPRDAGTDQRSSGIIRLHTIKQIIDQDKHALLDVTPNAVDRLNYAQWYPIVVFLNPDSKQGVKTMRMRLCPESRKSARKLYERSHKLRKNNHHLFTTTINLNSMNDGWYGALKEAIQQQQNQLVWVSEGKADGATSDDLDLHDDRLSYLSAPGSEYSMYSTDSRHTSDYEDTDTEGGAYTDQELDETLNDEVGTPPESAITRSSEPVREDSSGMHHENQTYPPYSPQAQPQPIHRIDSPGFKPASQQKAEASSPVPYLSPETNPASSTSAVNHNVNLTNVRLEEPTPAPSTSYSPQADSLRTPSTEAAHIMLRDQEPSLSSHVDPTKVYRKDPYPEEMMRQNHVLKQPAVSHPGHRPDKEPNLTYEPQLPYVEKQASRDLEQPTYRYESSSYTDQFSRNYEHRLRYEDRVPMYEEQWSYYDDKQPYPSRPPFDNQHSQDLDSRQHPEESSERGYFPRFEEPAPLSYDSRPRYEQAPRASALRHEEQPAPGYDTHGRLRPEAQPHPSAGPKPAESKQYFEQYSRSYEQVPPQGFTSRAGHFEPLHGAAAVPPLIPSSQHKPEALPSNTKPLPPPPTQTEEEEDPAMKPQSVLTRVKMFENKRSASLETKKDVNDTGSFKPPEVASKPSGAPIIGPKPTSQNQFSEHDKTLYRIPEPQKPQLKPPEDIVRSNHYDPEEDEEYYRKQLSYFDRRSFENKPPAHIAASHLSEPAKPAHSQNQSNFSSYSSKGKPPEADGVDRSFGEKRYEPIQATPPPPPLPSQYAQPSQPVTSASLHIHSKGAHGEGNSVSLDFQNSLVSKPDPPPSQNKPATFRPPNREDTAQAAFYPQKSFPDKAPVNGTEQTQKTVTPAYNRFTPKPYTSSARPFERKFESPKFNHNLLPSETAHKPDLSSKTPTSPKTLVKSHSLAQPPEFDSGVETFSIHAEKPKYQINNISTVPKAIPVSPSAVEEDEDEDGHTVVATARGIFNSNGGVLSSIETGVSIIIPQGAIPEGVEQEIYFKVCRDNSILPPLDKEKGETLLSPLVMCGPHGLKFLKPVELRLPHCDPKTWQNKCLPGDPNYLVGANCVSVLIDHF

Regarding “G-actin-Alexa Fluor 647 (from UniProt P68135 1-377) (natural protein)”, in test [1], the fold enrichment in the surface condensates was 5 fold.

“Zonula occludens scaffold protein ZO1 (from UniProt Q07157 1-1748) (natural protein)” gave a fold enrichment in the dense ZO1 phase in test [2] of 2 fold.
